{"source": "patent US9803013B2", "about": "“Biological materials and uses thereof” (BioInvent International AB, priority 2005, dated 2017)", "key": {"primary patient MM cells": {"tested_on": "primary patient MM cells", "experiment": "SCID-hu mouse model of multiple myeloma", "type": "in vivo", "procedure": "Bone marrow cells (>20% plasma cells) from myeloma patients (two patients in experiment 1 [top panel] and two different patients in experiment 2 [lower panel]) were injected into transplanted human fetal bones of SCID-hu mice. Four weeks after myeloma cell inoculation mice were divided into four groups to yield similar mean hIgG levels between groups, each group comprising mice grafted with MM cells from the different patient donors used in the experiment, and twice weekly treatment with 2 mg/kg BI-505, 1 mg/kg bortezomib or 2 mg/kg control human IgG was started (arrow). […] Graphs show mean hIgG concentrations.\nPrimary human MM cells depend on interactions with bone marrow stromal cells to proliferate and survive. The SCID-hu mouse harbors a human microenvironment where primary patient MM cells proliferate and induce pathology similar to human clinical MM (Yaccoby et al., 1998). MM cell derived human IgG titers were detected (>10 μg/ml) in the serum of SCID-hu mice four weeks after implantation of human MM cells to transplanted human bones, at which time treatment with antibodies (2 mg/kg) or bortezomib (1 mg/kg) began. Human IgG titers increased steadily in control treated SCID-hu mice over the course of experimentation to reach maximal concentrations of 40±5 μg/ml just before sacrifice (FIG. 18B and FIG. 19). […] Two independent experiments were performed with similar results (FIG. 18B and FIG. 19), each with MM cells from two different patient donors (n=4).\nHuman fetal femurs and tibias, obtained at 17 to 22 gestational weeks, were cut into fragments and implanted subcutaneously in SCID mice (SCID-hu) at age 6 to 8 weeks. Each animal was implanted with one bone fragment. Four weeks after bone implantation, 2 to 14×10^6 bone marrow cells from each patient (two patients per experiment for a total of four patients in two independent experiments, n=4), containing>20% plasma cells were injected directly into the human bone of 6 to 8 SCID-hu mice in a final volume of 30 to 40 μl of phosphate-buffered saline (PBS). One group of mice was implanted with bone only and served as “healthy” bone control. Mouse sera were serially monitored for human immunoglobulin (hIg) and the isotype levels were used as an indicator of myeloma cell growth by elisa. When hIg level reached 10 μg/mL or higher in 2 consecutive measurements after 4 weeks of injection of the tumor cells, the mice were divided into four groups to yield similar mean hIgG levels between groups, each group comprising mice grafted with MM cells from the different patient donors used in each experiment. The four treatment groups were: healthy control group (no myeloma cells injected and no drug treatment), isotype control group (myeloma cells injected and treated with isotype control IgG, 2 mg/kg, i.p., twice weekly), BI505 group (myeloma cells injected and treated with BI505, 2 mg/kg, i.p., twice weekly) and bortezomib group (myeloma cells injected and treated with 1 mg/kg, i.p., twice weekly). In some graphs hIgG levels were normalized to pretreatment (4 weeks) levels and the percent increase or decrease in hIgG levels as a function of treatment and time was analyzed. Normalized data from animals receiving the same treatment (control IgG, BI-505 or bortezomib) but grafted with MM cells from each of the four different patient donors in the two experiments were pooled and statistical difference was assessed by grouped 2-way ANOVA test and Bonferroni's posttest using GraphPad Prism 5 software. Patient myeloma cells were taken after informed consent and with the approval of the local ethics committee. For x-radiography evaluation and quantification of bone mineral density (BMD) mice in the four groups were sacrificed and the implanted human bones were taken out and fixed in 10% formalin solution. Radiographs were taken with an AXR Minishot-100 beryllium source instrument (Associated X-Ray Imaging Corp., Haverhill, Mass., USA) and 100 s exposure at 30 kV. […]"}, "mouse FcγRIV": {"target": "T1, mouse FcγRIV (Mus musculus, UniProt A0A0B4J1G0)", "T1 construct": "made in house; host or cells: HEK293E cells (transient)", "T1 sequence (A0A0B4J1G0 21-249)": "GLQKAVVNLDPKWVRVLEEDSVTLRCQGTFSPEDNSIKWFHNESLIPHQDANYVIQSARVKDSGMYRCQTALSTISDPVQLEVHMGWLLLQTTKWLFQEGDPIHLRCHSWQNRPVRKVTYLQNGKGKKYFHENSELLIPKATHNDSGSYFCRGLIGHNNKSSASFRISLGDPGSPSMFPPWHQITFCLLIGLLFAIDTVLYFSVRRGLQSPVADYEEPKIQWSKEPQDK", "experiment": "BiaCore analysis of BI-505 Fc-variant binding to FcγR", "procedure": "(FIG. 20B) BiaCore analysis of BI-505 Fc-variant antibodies binding to mouse FcγRIV.\nHis-tagged human FcγRIIIa and mouse FcγRIV were transiently expressed in HEK293E cells, purified using Ni-NTA chromatography, and characterized by SDS-PAGE and/or Biacore. Surface plasmon resonance (SPR) measurements were performed using a Biacore 3000 instrument. Goat F(ab)′2 α-human-F(ab)′2 fragments (Jackson Laboratories) were immobilized with a CM-5 chip using a standard amine coupling protocol. BI-505 (IgG1) and IgG4 or IgG1 297Q variants of BI-505 were diluted to 15 and 60 μg/mL respectively and added to the surface at 10 μL/min for 3 min. His-tagged human FcγRIIIa or mouse FcγRIV was pre-incubated with an α-HIS antibody (R&D Systems) at a 2:1 molar ratio before addition to the chip surface, 30 μL/min, for 1 min. After each cycle the surface was regenerated twice with glycine buffer pH 1.7."}}, "data": [{"molecule": "B11: fully human IgG1 antibody specific for ICAM-1; VH and VL sequences of FIG. 10 (SEQ ID NOs. 6 and 8) (antibody, listed as Homo sapiens, V domains shown) VH: EVQLLESGGGLVQPGGSLRLSCAASGFTFSNAWMSWVRQAPGKGLEWVAFIWYDGSNKYYADSVKGRFTISRDNSKNTLYLQMNSLRAEDTAVYYCARYSGWYFDYWGQGTLVTVSS VL: QSVLTQPPSASGTPGQRVTISCTGSSSNIGAGYDVHWYQQLPGTAPKLLIYDNNNRPSGVPDRFSGSKSGTSASLAISGLRSEDEADYYCQSYDSSLSAWLFGGGTKLTVLG", "values": [{"measurement": "serum hIgG relative to pre-treatment levels", "setting": "primary patient MM cells; 2 mg/kg twice weekly from four weeks after MM cell implantation", "result": "91±22", "unit": "%"}, {"measurement": "bone osteoclasts", "setting": "primary patient MM cells; TRAP staining, compared to control-treated mice", "result": "reduced numbers of bone osteoclasts"}, {"measurement": "bone mineral density", "setting": "primary patient MM cells; X-radiography of implanted human bones", "result": "decreased loss of bone mineral density"}, {"measurement": "serum human IgG levels", "setting": "primary patient MM cells; antibody 2 mg/kg or bortezomib 1 mg/kg twice weekly", "result": "halted or reduced serum human IgG levels to below pre-treatment levels"}, {"measurement": "tumor burden in human bone implants", "setting": "primary patient MM cells; human CD138 immunohistochemistry", "result": "decreased tumor burden"}, {"measurement": "binding to mouse FcγRIV, order", "setting": "mouse FcγRIV", "result": "IgG1 N297Q<IgG4<IgG1"}]}]}
